B1: C58 Atu4375 gene: recombinant scyllo-inositol dehydrogenase, Atu4375 gene product of Agrobacterium tumefaciens C58 ATCC33970, SEQ ID NO: 4 (protein)
chain: MSSATKKFDSRRIRLGMVGGGQGAFIGAVHRIAARLDDRYELVAGALSSDPARAAASATLLGIAPERSYASFEDMAATEAGREDGIEAVAIVTPNHLHFAPSKAFLEAGIHVICDKPVTATLEEAKALAGIVRASDSLFVLTHNYTGYAMLRQMREMIAEGAIGKLRHVQAEYAQDWLTEAVEKTGAKGAEWRTDPSRSGAGGAIGDIGTHAFNAAAFVTGEIPSSLYADLTSFVPGRQLDDSANILLRYDSGAKGMLWASQIAVGNENALSLRVYGDKGGLEWHHRVPDELWFTPYGEPKRLITRNGAGAGAAANRVSRVPSGHPEGYLEGFATIYREAADAIIAKREGETAAGEVIYPGMEDGLAGLAFIDAAVRSSQTSTWVGIDI
modifications: Agrobacterium tumefacience
B2: C58 Atu3234 gene: recombinant scyllo-inositol dehydrogenase, Atu3234 gene product of Agrobacterium tumefaciens C58 ATCC33970, SEQ ID NO: 6 (protein)
chain: MAIEGKTTDVANKRIRLGMVGGGSGAFIGGVHRMAARLDNRFDLVAGALSSTPEKSLASGRELGLDSERCYGSFEEMAEKEALREDGIEAVAIVTPNHVHYPAAKAFLERGIHVICDKPLTSNLEDAKKLKDVADKADALFILTHNYTGYPMVRHARELVEAGALGNIRLVQMEYPQDWLTEAVEQTGAKQAVWRTDPAQSGVGGSTGDIGTHAYNLGCFISGLEADELAADVHTFVEGRRLDDNAHVMMRFKPKGGKQPARGMLWCSQVAVGHENGLKIRLYGDKAGLEWTQADPNYLWFTKLGEPKQLITRGGAGAGAAAARVTRIPSGHPEGYLEAFATIYTEAAHAIEARRTGSALDKAVIYPTVDDGVKGVAFVTACIESGKKNGGWVKL
modifications: Agrobacterium tumefacience
B3: ydgJ gene: recombinant scyllo-inositol dehydrogenase, ydgJ gene product of Escherichia coli K12 ATCC10798, SEQ ID NO: 2 (protein, listed as Escherichia coli)
chain: MSDNIRVGLIGYGYASKTFHAPLIAGTPGQELAVISSSDETKVKADWPTVTVVSEPKHLFNDPNIDLIVIPTPNDTHFPLAKAALEAGKHVVVDKPFTVTLSQARELDALAKSLGRVLSVFHNRRWDSDFLTLKGLLAEGVLGEVAYFESHFDRFRPQVRDRWREQGGPGSGIWYDLAPHLLDQAITLFGLPVSMTVDLAQLRPGAQSTDYFHAILSYPQRRVILHGTMLAAAESARYIVHGSRGSYVKYGLDPQEERLKNGERLPQEDWGYDMRDGVLTRVEGEERVEETLLTVPGNYPAYYAAIRDALNGDGENPVPASQAIQVMELIELGIESAKHRATLCLA

The nature of one series: Optimum pH of scyllo-inositol dehydrogenase. It counts as biochemical. Conditions: 200 mM phosphate buffer (pH 5.0 to 9.0); 90% or more of the maximum activity. On the procedure: The optimum pH can be confirmed by: mixing 5 μl of a reaction solution (200 mM […] of pH 5.0 to 9.0 containing 2% of NADPH, and 1% of scyllo-inosose) and 5 μl of an enzyme solution; allowing the mixture to react at 36° C. for 30 minutes; adding 500 μl of water immediately after the completion of the reaction; determining the absorbance at 340 nm; and determining a decrease in the absorbance at 340 nm with respect to a blank value of a test solution containing water instead of the enzyme solution. The term “optimum pH” means a pH at which the enzyme has 90% or more of the maximum activity. The enzyme of the present invention can be divided depending on, for example, a range of the optimum pH into groups each having: an optimum pH in an acidic region (optimum pH is pH of 5.5 to 6.5); an optimum pH in a neutral region (optimum pH is pH of 6.5 to 7.5 or 6.5 to 8.5); and an optimum pH in an alkaline region (optimum pH is pH of 7.0 to 8.5 or 7.5 to 9.0).
The optimum pH of the enzymes of the present invention was determined by: mixing 5 μl of a reaction solution (200 mM phosphate buffer (pH 5.0 to 9.0), 2% of NADPH, and 1% of scyllo-inosose) with 5 μl of an enzyme solution; and allowing the mixture to react at 36° C. for 30 min. After the reaction, 500 μl of water was immediately added thereto, and the absorbance at 340 nm was measured. From the blank value of a test solution prepared by using water instead of the enzyme solution, the decrease in the absorbance at 340 nm was measured. The enzyme solution was diluted as required.
Turning to B1, the “Optimum pH” value is reported as “pH 6.5-8.5”.
The same measure, in the same setting: the value for B2 was “pH 7.0-8.5”.
Still for that read-out and setting: the value for B3 was “pH 7.5-9.0”.

A short description of another series: Effects of heavy metal on scyllo-inositol dehydrogenase. The class given is biochemical. Conditions: 2 mM heavy metal in reaction solution; no addition group = 100%. Here is the method: Effects by the heavy metals can be confirmed by: mixing 5 μl of a reaction solution (200 mM Tris buffer of pH 8.0 containing 2% of NADPH, 1% of scyllo-inosose, and 2 mM metal salt) and 5 μl of an enzyme solution; allowing the mixture to react at 36° C. for 30 minutes; adding 500 μl of water immediately after the completion of the reaction; determining the absorbance at 340 nm; and determining a decrease in the absorbance at 340 nm with respect to a blank value of a test solution containing water instead of the enzyme solution. The term “activated” means the case where the enzymatic activity of a fraction added with 1 mM of a heavy metal is 105% or more, preferably 120% or more, with respect to the enzymatic activity of a fraction added with no heavy metal as 100%. On the other hand, the term “inhibited” means the case where the enzymatic activity of the fraction added with 1 mM of a heavy metal is 95% or less, preferably 70% or less, with respect to the enzymatic activity of the fraction added with no heavy metal as 100%.
The effects of heavy metal on the enzymes of the present invention were determined by: mixing 5 μl of a reaction solution (200 mM Tris buffer (pH 8.0), 2% of NADPH, 1% of scyllo-inosose, and 2 mM of a heavy metal) with 5 μl of an enzyme solution; and allowing the mixture to react at 36° C. for 30 min. After the reaction, 500 μl of water was immediately added thereto, and the absorbance at 340 nm was measured. From the blank value of a test solution prepared by using water instead of the enzyme solution, the decrease in the absorbance at 340 nm was measured. The enzyme solution was diluted as required. CaCl2, CoCl2, ZnSO4, MgSO4, SnCl2, NiCl2, and MnSO4 were used as metallic salts. The activity of the no addition group was defined as 100%, and the relative activities were compared. […] Most of the enzymes were inhibited in the presence of Zn^2+ ion, in contrast, the enzyme derived from Bacillus subtilis 168 was activated in the presence of Zn^2+ ion.
On to B1, for which the “Heavy metal effects: activation” value is recorded as “Co, Mn” and the “Heavy metal effects: strong inhibition” value is “Sn, Zn”.
On to B2, for which the “Heavy metal effects: activation” value is listed as “Co, Mn, Ca” and the “Heavy metal effects: strong inhibition” value is on record as “Sn, Zn”.
B3: the “Heavy metal effects: activation” value is “Co” and the “Heavy metal effects: strong inhibition” value is “Sn, Zn”.

A short description of a further series: Enzyme reaction product of scyllo-inosose reduction measured by HPLC. The class given is biochemical. The conditions noted are these: 10 mg scyllo-inosose, 40 mg NADPH, 10 U enzyme, 36° C., 4 hours; myo-inositol not detected. On the procedure:
Meanwhile, the enzyme reaction product was measured as follows: 10 mg of scyllo-inosose, 40 mg of NADPH, and 10 U of the enzyme were allowed to react in 1.0 ml of 100 mM Tris buffer (pH 8.0) at 36° C. for 4 hours, and a heat treatment was performed at 80° C. for 10 min, followed by cooling. Then, 100 μl of a strong base cation exchange resin, 100 μl of a strong acid anion exchange resin, and 10 mg of activated carbon were added, and the mixture was stirred and centrifuged. Then, the supernatant was diluted 2-fold, and measurement was performed by HPLC (Shodex Asahipak NH2P-50 4E Φ 4.6×250 mm: Shodex) using an RI detector under the condition of a column temperature of 40° C. and a mobile phase flow rate of 1.5 ml (80% acetonitrile). […] Meanwhile, the sequence of the ydgJ gene is shown in SEQ ID NO: 1, and the amino acid sequence corresponding thereto is shown in SEQ ID NO: 2.
Meanwhile, enzyme reaction product was measured as follows: 10 mg of scyllo-inosose, 40 mg of NADPH, and 10 U of the enzyme were allowed to react in 1.0 ml of 100 mM Tris buffer (pH 8.0) at 36° C. for 4 hours, and a heat treatment was performed at 80° C. for 10 min, followed by cooling. Then, 100 μl of a strong base cation exchange resin, 100 μl of a strong acid anion exchange resin, and 10 mg of activated carbon were added, and the mixture was stirred and centrifuged. Then, the supernatant was diluted 2-fold, and measurement was performed by HPLC (Shodex Asahipak NH2P-50 4E Φ 4.6×250 mm: Shodex) using an RI detector under conditions of a column temperature of 40° C. and a mobile phase flow rate of 1.5 ml (80% acetonitrile).
In the case of B1, the “share of scyllo-inositol in the product of scyllo-inosose reduction” value is on record as 100%.
The same measure, in the same setting: the result for B2 reads 100%.
Consider B3, for which the “share of scyllo-inositol in the product of scyllo-inosose reduction” value stood at 100%.

The series is the same for the next values; noted with them: SIS: scyllo-inosose, SI: scyllo-inositol.
B1: the Reduction reaction product entry was “Only SIS → SI”.
As to B2, the Reduction reaction product entry is reported as “Only SIS → SI”.
The same measure, in the same setting: the value for B3 was “Only SIS → SI”.

A further series can be described thus: Km values of scyllo-inositol dehydrogenase for scyllo-inosose (reciprocal plot). The class given is biochemical. Conditions: NADPH, pH 8.0, 36° C. Here is the method: The determination is carried out such that the Km value is calculated after reciprocal plot according to the general method.
After the reaction, […] of water was immediately added thereto, and the absorbance at 340 nm was measured. From the blank value of a test solution prepared by using water instead of the enzyme solution, the decrease in the absorbance at 340 nm was measured. The enzyme solution was diluted as required. The Km values were calculated by the reciprocal plot.
In the case of B1, the Km (usually the concentration of substrate that gives half-maximal velocity) came out at 9.2 mM.
Take B2: the Km was 2.6 mM.
As for B3, the Km came out at 3.9 mM.

A short description of another series: Substrate specificity of scyllo-inositol dehydrogenase (relative activity of oxidation, absorbance at 545 nm). It counts as biochemical. Conditions: relative to reactivity to scyllo-inositol, NADP^+, pH 8.0, 25° C. On the procedure:
Examples of an inositol isomer include scyllo-inositol (SI), myo-inositol (MI), D-chiro-inositol (DCI), L-chiro-inositol (LCI), epi-inositol (EI), muco-inositol (MuI), allo-inositol (AI), and neo-inositol (NI).
The inositol isomers include scyllo-inositol (SI), myo-inositol (MI), D-chiro-inositol (DCI), L-chiro-inositol (LCI), epi-inositol (EI), muco-inositol (MuI), allo-inositol (AI), and neo-inositol (NI).
The reaction rate was calculated from the absorbance increments at the respective times.
As for B1, the “Substrate specific Relative activity (20 to 70%)” value is listed as “LCI, MuI”; the “Substrate specific Relative activity (70% or more)” value is reported as “SI, MI, DCI, EI”; the “Substrate specific Relative activity (less than 20%)” value is “AI, NI”.
Regarding B2, the “Substrate specific Relative activity (20 to 70%)” value was “MuI”; the “Substrate specific Relative activity (70% or more)” value is “SI, MI, DCI, EI, LCI”; the “Substrate specific Relative activity (less than 20%)” value was “AI, NI”.
For the molecule B3, the “Substrate specific Relative activity (20 to 70%)” value is recorded as “LCI, EI, MuI”; the “Substrate specific Relative activity (70% or more)” value was “SI, MI, DCI”; the “Substrate specific Relative activity (less than 20%)” value is listed as “AI, NI”.

(Values after US8409833B2 (Hokko Chemical Industry Co., Ltd., priority 2003, dated 2013).)
